The values that follow come from patent publication US9523084B2, “Phosphodeoxyribosyl transferase mutant enzymes and uses thereof” (Centre National De La Recherche Scientifique, priority 2012, dated 2016).

The target of data set [1] is T1, Lactobacillus leichmannii nucleoside deoxyribosyltransferase (NDT, SEQ ID NO:1) variant PDTT1, R13 G92 T93 S123 K157 (F13R/D92G/V93T/N123S/Y157K), SEQ ID NO:9 (Lactobacillus leichmannii, UniProt Q9R5V5, D92G/F13R/N123S/V93T/Y157K).
T1 construct: homohexamer (108 kDa)
T1 sequence (Q9R5V5 1-157 F13R/D92G/V93T/N123S/Y157K): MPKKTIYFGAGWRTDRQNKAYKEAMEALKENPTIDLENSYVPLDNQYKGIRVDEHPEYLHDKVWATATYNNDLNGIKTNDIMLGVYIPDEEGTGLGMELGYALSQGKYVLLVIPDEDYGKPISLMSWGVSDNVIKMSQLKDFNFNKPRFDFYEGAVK
Nature of the data set: Kinetic parameters of PDT variants with deoxycytidine 5'-mono, -di and -triphosphate as donors and adenine as acceptor. It is filed as biochemical. Particulars: adenine acceptor. How it is done:
(§1) The standard assay (“first protocol for enzyme assay”) for the different NDTs consisted of 5-15 μg of NDT in 50 mM MES buffer pH 6.0, dNxP (dNMP, or dNDP or dNTP) 3 mM and a base 1 mM in a total volume of 50 μL. Assays were incubated for 60 min at 37° C. The products of the reactions were analyzed each 7 min by Rapid resolution high performance liquid chromatography using a reverse-phase column (ZORBAX Eclipse XDB-C18 2.1*50 mm 1.8 μM) with a flow rate of 0.25 ml/min and a linear gradient of 1-12% CH3CN (2-25% CH3CN or 1-90% CH3CN) in 20 mM triethylammonium acetate, pH 7.5, buffer for 7 min. The low resolution mass spectra of the newly synthesized deoxyribonucleotides were obtained on an Agilent 1200 series LC/MS 6120 quadrupole system using an atmospheric electrospray ionization system.
(§2) This hypothesis was confirmed by monitoring the specific activity, in the presence of dCDP or dCTP as donor and adenine as acceptor (see table 2 above). The kinetic parameters were determined for the best variants with dCMP, dCDP and dCTP as substrates, at a concentration of A being fixed (see table 3 below).

In data set [2] the target is T2, Lactobacillus leichmannii nucleoside deoxyribosyltransferase (NDT, SEQ ID NO:1) variant PDTT2, R13 Q91 G92 T93 S123 (F13R/E91Q/D92G/V93T/N123S), SEQ ID NO:10 (Lactobacillus leichmannii, UniProt Q9R5V5, D92G/E91Q/F13R/N123S/V93T).
T2 construct: made in house; host or cells: E. coli BLi5 (pET24a NDT plasmid)
T2 sequence (Q9R5V5 2-157 F13R/E91Q/D92G/V93T/N123S): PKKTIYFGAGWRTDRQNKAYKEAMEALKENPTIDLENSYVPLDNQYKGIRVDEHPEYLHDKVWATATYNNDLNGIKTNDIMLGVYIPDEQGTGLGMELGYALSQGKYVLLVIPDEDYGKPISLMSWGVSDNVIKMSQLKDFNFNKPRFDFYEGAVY
The description is as above. It is filed as biochemical. Particulars: adenine acceptor. How it is done: as §1, §2

Substrate in data set [3]: Nc1ccn([C@H]2C[C@H](O)[C@@H](COP(=O)(O)O)O2)c(=O)n1
The data set is described as above. It is filed as biochemical, Lactobacillus leichmannii. Particulars: 37.0 °C; for Km: adenine as acceptor, fixed. The protocol: as §1, §2

Data set [4] in a line: Catalytic activity of PDTT2 to PDTT7, dATP formed (HPLC). It is filed as biochemical. Particulars: dCTP + A ⇄ dATP + C; 2 mM dCTP, 1 mM Adenine, 37° C., MES 50 mM pH6.0. How it is done:
In specific cases, an alternative protocol was used to perform the enzyme assay. In this second protocol, the dNxP (dNMP, or dNDP or dNTP) concentration was of only 2 mM, instead of 3 mM. All of the other conditions were identical to those of the first protocol.
The catalytic activity of the mutant enzymes PDTT2, PDTT3, PDTT3b, PDTT4, PDTT5, PDTT6, PDTT7 has been compared. Briefly, a sufficient amount of enzyme mutant necessary to obtain a linear reaction over a period of one hour at 37° C. has been mixed in 2 mM dCTP and 1 mM Adenine in a final volume of 50 μL of MES buffer 50 mM pH6.0. Assays were incubated for 60 min at 37° C. The products of the reactions were analyzed each 7 min by Rapid resolution high performance liquid chromatography using a reverse-phase column (ZORBAX Eclipse XDB-C18 2.1*50 mm […]) with a flow rate of 0.25 ml/min and a linear gradient of 1-12% CH3CN (2-25% CH3CN or 1-90% CH3CN) in 20 mM triethylammonium acetate, pH 7.5, buffer for 7 min.

Data set [5] in a line: Spectrophotometric assay coupled to xanthine oxidase (2,8-dihydroxyadenine at 301 nm). It is filed as biochemical. Particulars: dATP + C ⇄ dCTP + A; 1 mM cytosine, 50 mM MES pH6.0, 37° C. How it is done: (§3) Further, the cinetic parameters of these mutant enzymes were analysed, using a specific spectrophotometric assay. Briefly, the assay consists in measuring the formation of the final product (2,8 dihydroxyadenine) of the reaction:
(§4) Briefly, the assay was performed using the coupling of two enzymes: the variant (PDTT2, PDTT4, PDTT5, PDTT6, or PDTT7) to be tested and xanthine oxidase (obtained from Roche). The reaction mixture contained varying concentrations of dATP, 1 mM cytosine in a 50 mM MES buffer pH6.0 at 37° C. The reaction was initiated by adding 30 units of the purified variant to be tested and xanthine oxidase (Roche). The released adenine was then oxidized in 2,8-dihydroxyadenine which absorbs at 301 nm. The formation (i.e. concentration) of 2,8 dihydroxyadenine was measured by spectrophotometry.

Substrate in data set [6]: Nc1ncnc2c1ncn2[C@H]1C[C@H](O)[C@@H](COP(=O)(O)OP(=O)(O)OP(=O)(O)O)O1
Nature of the data set: Spectrophotometric assay coupled to xanthine oxidase, dATP + C ⇄ dCTP + A. It is filed as biochemical. Particulars: other: PDTT2, 1 mM cytosine, 50 mM MES pH6.0, 37° C., pH 6.0. How it is done:
as §3, §4

Substrate in data set [7]: Nc1ncnc2c1ncn2[C@H]1C[C@H](O)[C@@H](COP(=O)(O)OP(=O)(O)OP(=O)(O)O)O1
The data set is described as above. It is filed as biochemical, Lactobacillus leichmannii. Particulars: other: PDTT5, 1 mM cytosine, 50 mM MES pH6.0, 37° C., pH 6.0. The protocol: as §3, §4

Substrate in data set [8]: Nc1ccn([C@H]2C[C@H](O)[C@@H](COP(=O)(O)OP(=O)(O)OP(=O)(O)O)O2)c(=O)n1
Nature of the data set: Kinetic parameters of PDT variants with deoxycytidine 5'-mono, -di and -triphosphate as donors and adenine as acceptor. It is filed as biochemical. Particulars: other: PDTT2; deoxyribose triphosphate transferase; 37.0 °C. The protocol: as §1, §2

Substrate in data set [9]: Nc1ccn([C@H]2C[C@H](O)[C@@H](COP(=O)(O)O)O2)c(=O)n1
The data set is described as above. Particulars: 37.0 °C; for Km: adenine as acceptor, fixed. It is filed as biochemical. The protocol: as §1, §2

By kcat is commonly meant the maximal rate divided by the concentration of active sites. For the molecule `Nc1ccn([C@H]2C[C@H](O)[C@@H](COP(=O)(O)O)O2)c(=O)n1` [dCMP], the kcat in [1] (PDTT1, second line of the table) was found to be 0.08 s⁻¹; in data set [1] (PDTT1, third line of the table), 0.5 s⁻¹; in [2] (PDTT2, second line of the table) it was 0.1 s⁻¹; in data set [2] (PDTT2, third line of the table), 1.3 s⁻¹.

B1: Lactobacillus leichmannii nucleoside deoxyribosyltransferase (NDT, SEQ ID NO:1) variant PDTT1, R13 G92 T93 S123 K157 (F13R/D92G/V93T/N123S/Y157K), SEQ ID NO:9 … (protein)
chain: MPKKTIYFGAGWRTDRQNKAYKEAMEALKENPTIDLENSYVPLDNQYKGIRVDEHPEYLHDKVWATATYNNDLNGIKTNDIMLGVYIPDEEGTGLGMELGYALSQGKYVLLVIPDEDYGKPISLMSWGVSDNVIKMSQLKDFNFNKPRFDFYEGAVK
notes: homohexamer (108 kDa)
The term Km denotes the concentration of substrate that gives half-maximal velocity. With B1, the kcat in [3] (other: PDTT1, first line, adenine acceptor, molecular mass of 108 kDa) stood at 0.46 s⁻¹. In addition, the Km was determined as 4100 µM in data set [3] (other: PDTT1, first line); 8900 µM in [3] (other: PDTT1, second line of the table); 5500 µM in data set [3] (other: PDTT1, third line of the table).

B2: PDTT7: PDTT3b mutant with Arginine at position 157, SEQ ID NO:42 (protein)
chain: MPKKTIYFGAGWRTDRQNKAYKEAMEALKENPTIDLENSYVPLDNQYKGIRVDEHPEYLHDKVWATATYNNDLNGIKTNDIMLGVYIPDEQGGGLGMELGYALSQGKYVLLVIPDEDYGKPISLMSWGVSDNVIKMSQLKDFNFNKPRFDFYEGAVR
modifications: amino acid sequence of PDTT7 (G92/S123/R13/G93/R157/Q91)
In the case of B2, the “Catalytic activity (nmol of dATP formed/min/mg of enzyme protein)” value in [4] is given as 17.9 nmol of dATP formed/min/mg of enzyme protein. In [5], the Km is 2600 µM and the kcat worked out at 10 s⁻¹.

B3: Lactobacillus leichmannii nucleoside deoxyribosyltransferase (NDT, SEQ ID NO:1) variant PDTT2, R13 Q91 G92 T93 S123 (F13R/E91Q/D92G/V93T/N123S), SEQ ID NO:10 … (protein)
chain: MPKKTIYFGAGWRTDRQNKAYKEAMEALKENPTIDLENSYVPLDNQYKGIRVDEHPEYLHDKVWATATYNNDLNGIKTNDIMLGVYIPDEQGTGLGMELGYALSQGKYVLLVIPDEDYGKPISLMSWGVSDNVIKMSQLKDFNFNKPRFDFYEGAVY
notes: made in house; host or cells: E. coli BLi5 (pET24a NDT plasmid)
The term kcat/Km denotes the turnover number divided by the Michaelis constant. With B3, in [6], the Km worked out at 6100 µM, the kcat is 12.6 s⁻¹ and the kcat/Km came to 2000 M⁻¹ s⁻¹.

B4: Lactobacillus leichmannii nucleoside deoxyribosyltransferase (NDT, SEQ ID NO:1) variant PDTT5, R13 Q91 G92 P93 S123 R157 (F13R/E91Q/D92G/V93P/N123S/Y157R), SEQ … (protein)
chain: MPKKTIYFGAGWRTDRQNKAYKEAMEALKENPTIDLENSYVPLDNQYKGIRVDEHPEYLHDKVWATATYNNDLNGIKTNDIMLGVYIPDEQGPGLGMELGYALSQGKYVLLVIPDEDYGKPISLMSWGVSDNVIKMSQLKDFNFNKPRFDFYEGAVR
notes: xanthine oxidase is coupling enzyme only
Take B4: in data set [7], the Km came to 200 µM, the catalytic constant (kcat) amounted to 8.78 s⁻¹ and the kcat/Km was found to be 42800 M⁻¹ s⁻¹.

B5: PDTT6: PDTT4 mutant with Arginine at position 157, SEQ ID NO:43 (protein)
chain: MPKKTIYFGAGWRTDRQNKAYKEAMEALKENPTIDLENSYVPLDNQYKGIRVDEHPEYLHDKVWATATYNNDLNGIKTNDIMLGVYIPDEQGSGLGMELGYALSQGKYVLLVIPDEDYGKPISLMSWGVSDNVIKMSQLKDFNFNKPRFDFYEGAVR
modifications: amino acid sequence of PDTT6 (G92/S123/R13/S93/R157/Q91)
Consider B5, for which, in [4], the “Catalytic activity (nmol of dATP formed/min/mg of enzyme protein)” value is reported as 18.6 nmol of dATP formed/min/mg of enzyme protein. Further, in [5], the Michaelis-Menten constant (Km) turned out to be 500 µM and the kcat came to 10 s⁻¹.

B6: Lactobacillus leichmannii nucleoside deoxyribosyltransferase (NDT, SEQ ID NO:1) variant PDTT2, R13 Q91 G92 T93 S123 (F13R/E91Q/D92G/V93T/N123S), SEQ ID NO:10 … (protein)
chain: PKKTIYFGAGWRTDRQNKAYKEAMEALKENPTIDLENSYVPLDNQYKGIRVDEHPEYLHDKVWATATYNNDLNGIKTNDIMLGVYIPDEQGTGLGMELGYALSQGKYVLLVIPDEDYGKPISLMSWGVSDNVIKMSQLKDFNFNKPRFDFYEGAVY
notes: as for B3
For the molecule B6, the Km in [8] is 2000 µM; in data set [9] (other: PDTT2, first line) it was 6000 µM; in [9] (other: PDTT2, second line of the table), 8700 µM; in data set [9] (other: PDTT2, third line of the table), 2000 µM. Moreover, the kcat/Km in data set [8] is 668 M⁻¹ s⁻¹. In addition, the catalytic constant (kcat) in [9] (other: PDTT2, first line, adenine acceptor, molecular mass of 108 kDa) amounted to 0.9 s⁻¹.
